PMC12328794 (Communications Biology, 2025)

B1: Bap31_vDED (residues 168−233 + SAAA) (domain or fragment, human)
chain: LDVGNAEVKLEEENRSLKADLQKLKDELASTKQKLEKAENQVLAMRKQSEGLTKEYDRLLEEHAKLSAAA
notes: B-cell receptor-associated protein 31 (Bap31), human, variant of the death effector domain, residues 168-233; also called Bap31_vDED+SAAA; Bap31_168-233+SAAA; source: E. coli Rosetta2(DE3), purified (Ni-NTA, SEC)
B2: Bap31 coiled-coil 2 (Bap31_CC2, residues 168−246) (domain or fragment, human, UniProt P51572 168-246, looked up)
chain: LDVGNAEVKLEEENRSLKADLQKLKDELASTKQKLEKAENQVLAMRKQSEGLTKEYDRLLEEHAKLQAAVDGPMDKKEE
notes: B-cell receptor-associated protein 31 (Bap31), human, coiled-coil 2, residues 168-246; source: E. coli Rosetta2(DE3), purified (Ni-NTA, SEC)
B3: Bap31 coiled-coil 2 (Bap31_CC2, residues 168−246) WT (domain or fragment, human, UniProt P51572 168-246, looked up)
chain: B2 chain
notes: B-cell receptor-associated protein 31 (Bap31), human, coiled-coil 2, residues 168-246; also called Bap31_CC2 WT; Bap31_WT; source: E. coli Rosetta2(DE3), purified (Ni-NTA, SEC)

Key:
[1] = molecular target: the molecule itself; assay: AUC; sedimentation velocity, 42,000 rpm, 20 °C, 20 mM Tris-HCl pH 7.5, 150 mM NaCl, 0.5 mM TCEP; c(s) distribution (SEDFIT); oligomeric state of the protein alone
[2] = molecular target: T1, cytosolic domain of human Fis1 (Fis1_ΔTM, residues 1−123) (human, UniProt Q9Y3D6 1-123); assay: SPR; Fis1_ΔTM WT or mutants immobilised by amine coupling; Bap31 constructs flowed at 30 μl/min; 25 °C; 20 mM HEPES pH 7.5, 100 mM NaCl, 0.005% Tween 20; BSA reference subtracted; equilibrium analysis; conditions: both partners purified
T1 construct: mitochondrial fission protein 1 (Fis1), human, cytosolic domain with the C-terminal TM region truncated, residues 1-123; pQlinkH vector: N-terminal polyhistidine tag followed by a TEV site; also called Fis1_ΔTM WT; Fis1_WT; source: E. coli Rosetta2(DE3), purified (Ni-NTA, SEC)
T1 sequence (Q9Y3D6 1-123, stated change not applied): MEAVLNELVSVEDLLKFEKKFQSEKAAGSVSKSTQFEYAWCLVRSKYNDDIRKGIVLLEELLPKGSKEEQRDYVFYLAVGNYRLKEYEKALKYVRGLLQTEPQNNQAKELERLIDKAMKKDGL

| Binder | stoichiometry N [1] | Kd [2] [µM] |
| --- | --- | --- |
| B1 | ~2 |  |
| B2 | ~2 |  |
| B3 |  | 58 |
